The values below come from patent US20160096894 (published 2016).

Experiment [1] addresses T1, IGF-IR extracellular domain (human, UniProt P08069). Description: SPR, protocol 1.
The target in the next experiment is IGF-IR (human, UniProt P08069). Briefly: competition, IGF-I blocking.
The target of experiment [2] is T1, IGF-IR extracellular domain. Briefly: SPR, protocol 2. For orientation: SPR reads the build-up and loss of mass on a sensor chip optically.
The target is the same in experiment [3]. Description: SPR.

B1: 2.12.1 (antibody, V domains shown)
VH: GRLGQAWRSLRLSCAASGFTFSDYYMSWIRQAPGKGLEWVSYISSSGSTRDYADSVKGRFTISRDNAKNSLYLQMNSLRAEDTAVYYCVRDGVETTFYYYYYGMDVWGQGTTVTVSS
VL: ASVGDRVTFTCRASQDIRRDLGWYQQKPGKAPKRLIYAASRLQSGVPSRFSGSGSGTEFTLTISSLQPEDFATYYCLQHNNYPRTFGQGTEVEIIR
As for B1, the Kd (in general, the constant that tells how readily two partners part at equilibrium) in experiment [1] amounted to 7.37 nM. In addition, the half-inhibitory concentration (IC50) (commonly the point on the concentration scale where inhibition reaches its midpoint) with IGF-IR is 0.45 µg/mL.

B2: 2.13.2 (antibody, V domains shown)
VH: VQLLESGGGLVQPGGSLRLSCTASGFTFSSYAMNWVRQAPGKGLEWVSAISGSGGTTFYADSVKGRFTISRDNSRTTLYLQMNSLRAEDTAVYYCAKDLGWSDSYYYYYGMDVWGQGTTVTVSS
VL: DIQMTQFPSSLSASVGDRVTITCRASQGIRNDLGWYQQKPGKAPKRLIYAASRLHRGVPSRFSGSGSGTEFTLTISSLQPEDFATYYCLQHNSYPCSFGQGTKLEIK
B2: the Kd in experiment [2] was 1.53 nM; in experiment [1], 3.5 nM. Also, the IC50 with IGF-IR was 0.18 µg/mL.

B3: 4.9.2 (antibody, V domains shown)
VH: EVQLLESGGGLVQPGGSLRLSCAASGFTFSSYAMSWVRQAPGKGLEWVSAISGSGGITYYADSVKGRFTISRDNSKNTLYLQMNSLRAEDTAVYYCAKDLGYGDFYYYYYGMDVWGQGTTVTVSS
VL: DIQMTQSPSSLSASVGDRVTITCRASQGIRSDLGWFQQKPGKAPKRLIYAASKLHRGVPSRFSGSGSGTEFTLTISRLQPEDFATYYCLQHNSYPLTFGGGTKVEIK
Turning to B3, the Kd was determined as 0.427 nM in experiment [2] and 0.684 nM in experiment [1]. The same molecule came in with an IC50 with IGF-IR of 0.1 µg/mL.

B4: 2.14.3 (antibody, V domains shown)
VH: GPGLVKPSETLSLTCTVSGGSISNYYWSWIRQPAGKGLEWIGRIYTSGSPNYNPSLKSRVTMSVDTSKNQFSLKLNSVTAADTAVYYCAVTIFGVVIIFDYWGQGTLVTVSS
VL: SSLSASVGDRVTFTCRASQDIRRDLGWYQQKPGKAPKRLIYAASRLQSGVPSRFSGSGSGTEFTLTISSLQPEDFATYYCLQHNNYPRTFGQGTEVEIIR
Take B4: the Kd in experiment [3] worked out at 0.641 nM.

B5: 6.1.1 (antibody, V domains shown)
VH: EVQLLESGGGLVQPGGSLRLSCAASGFTFSSYAMSWVRQAPGKGLEWVSGITGSGGSTYYADSVKGRFTISRDNSKNTLYLQMNSLRAEDTAVYYCAKDPGTTVIMSWFDPWGQGTLVTVSS
VL: RATLSCRASQSVRGRYLAWYQQKPGQAPRLLIYGASSRATGIPDRFSGSGSGTDFTLTISRLEPEDFAVFYCQQYGSSPRTFGQGTKVEIK
The molecule B5 displayed a Kd in experiment [3] of 0.565 nM. The Kd values of the last two molecules are within 1.5-fold of each other.

B6: 4.17.3 (antibody, V domains shown)
VH: PGLVKPSETLSLTCTVSGGSISSYYWSWIRQPPGKGLEWIGYIYYSGSTNYNPSLKSRVTISVDTSKNQFSLKLSSVTAADTAVYYCARTYSSSFYYYGMDVWGQGTTVTVSS
VL: GDRVTITCRASQSISTFLNWYQQKPGKAPKLLIHVASSLQGGVPSRFSGSGSGTDFTLTISSLQPEDFATYYCQQSYNAPLTFGGGTKVEIK
In experiment [3], B6 yielded a Kd of 13 nM.
